From the supplement of paper PMC7125110
± gives the standard error. This sample holds only a part of the variants without activity.

B1: glmS ribozyme (parent)
chain: AUAAAAGCGCCAGAACUACAGAAAUGUAGUUGACGAGGAGGAGGUUUAUCGAAUUUUCGGCGGAUGCCUCCAAA

What was measured:
Conditions in all cases: with glucosamine-6-phosphate
[1] = variants of: B1; experiment: self-cleavage kobs at 640 uM GlcN6P; higher = faster cleavage; RNA array
How it was run: (§1)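 kobs was derived by fitting per-tile medians to one- or two-exponential decays after normalising signals to baseline and to non-cleaving reference variants. Those signals came from barcoded ribozyme variants transcribed in situ by E. coli RNA polymerase on sequenced MiSeq chips, followed through a hybridised Cy3 probe at 37 °C and imaged over ~14 h. Glucosamine-6-phosphate (40 μM to 10 mM) in HEPES/KCl/Mg(OAc)2 buffer was flowed in. Weighted Michaelis–Menten fits across concentrations then gave kcat and KM.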

[2] = variants of: B1; experiment: self-cleavage kobs at 2500 uM GlcN6P; higher = faster cleavage; RNA array
How it was run: as §1

[3] = variants of: B1; experiment: self-cleavage kobs at 10000 uM GlcN6P; higher = faster cleavage; RNA array
How it was run: as §1

Row | Variant | self-cleavage kobs at 640 uM GlcN6P [1] [s⁻¹] | self-cleavage kobs at 2500 uM GlcN6P [2] [s⁻¹] | self-cleavage kobs at 10000 uM GlcN6P [3] [s⁻¹]
1 | G29A U46A | 0.000116 ± 2.5e-05 | 0.000221 ± 4.8e-05 | 0.000241 ± 3.6e-05
2 | U30C G35A C71A | < 1e-05 | – | –
3 | A15U G35C C50U | < 1e-05 | – | –
4 | C16G A33C G38U A52U | < 1e-05 | – | –
5 | C16G G59C C61U | < 1e-05 | < 1e-05 | –
6 | G29C U47C C70U | 8.05e-05 ± 1.3e-05 | 0.000105 ± 2.4e-05 | –
7 | G13C G43A U49G A52G | < 1e-05 | < 1e-05 | –
8 | A14C G29A G35A G59A | < 1e-05 | < 1e-05 | –
9 | G29C U56A C58A G63U | < 1e-05 | < 1e-05 | –
10 | A15U C16G G37C | < 1e-05 | – | –
11 | G21U U54C U69C | 0.00201 ± 0.00057 | 0.000416 ± 0.00014 | –
12 | A15C C58G C70A | 5.23e-05 ± 1.5e-05 | 4e-05 ± 2e-05 | –
13 | G29A A42G U56G | 0.000337 ± 0.00011 | 0.00148 ± 0.00036 | –
14 | G29U A39C G66A | 0.000154 ± 3.3e-05 | 0.000178 ± 5.1e-05 | –
15 | A15G C58A C68G | 0.000265 ± 8.6e-05 | – | –
16 | A15G G44U A52C U69C | < 1e-05 | – | –
17 | A14U A15U G60U C71U | < 1e-05 | – | < 1e-05

Row | Variant | self-cleavage kobs at 640 uM GlcN6P [1] [s⁻¹] | self-cleavage kobs at 2500 uM GlcN6P [2] [s⁻¹] | self-cleavage kobs at 10000 uM GlcN6P [3] [s⁻¹]
18 | C16G G62U G66C | < 1e-05 | – | –
19 | C16U A39G A53C C68A | < 1e-05 | – | –
20 | U30C C34G | < 1e-05 | – | < 1e-05
21 | A15C C50U G51A G62U U69C | 3.56e-05 ± 1.7e-05 | – | –
22 | A14U G40A A53C C71A | 5.44e-05 ± 1.1e-05 | 0.000153 ± 2.6e-05 | –
23 | C16A A52G C70U | 0.00109 ± 0.00029 | – | –
24 | G29U U30C A52U | < 1e-05 | < 1e-05 | –
25 | G13C A15U C61U | < 1e-05 | – | –
26 | A14G G41U C71U | 0.000155 ± 4.4e-05 | 0.00102 ± 0.00029 | –
27 | A14U C34A C70G | < 1e-05 | < 1e-05 | –
28 | A14C C16G G29U | 0.000294 ± 5.1e-05 | 0.000837 ± 0.00017 | –
29 | A14C A36U A42G | < 1e-05 | < 1e-05 | < 1e-05
30 | A14U G38A A53G G63U | < 1e-05 | – | –
31 | A14U G44U U69C C71A | < 1e-05 | – | < 1e-05
32 | G29C G44C C71U | < 1e-05 | – | –
33 | U30C G38C A42U | < 1e-05 | < 1e-05 | –
